Measurements taken from the DeepSol protein solubility set.

experiment: soluble on expression in E. coli; label from the status in PepcDB or PDB records

| Sequence | soluble on expression in E. coli |
| --- | --- |
| MGSDKIHHHHHHMSLTIDGVTKKFGTFTAVNNLHVSVPKGEMFGMLGANGAGKTTTFRMILGLLEPTEGTIHWREQPLTYNQTNCIGYLPEERGLYPKLTVKDQLKYLGRLKGMKTQDIQKEMKMWLERFEVPEYEHKRVEQLSKGNQQKIQFIASVLHRPELLILDEPFSGLDPVNVELLKKAVIDLKKEGTTILFSSHRMEHVEELCQHLCILHRGSPVVEGNLKNIKRSFGKKNVIIQGEFALEPLVDIPGVLRHQETSAGAKFQIANEETAKLLFQAVATAGFVQKFELEEPSLHDIFVEKVGTRYE | not soluble |
| MGSDKIHHHHHHMSLVCSVIFIHHAFNANILDKDYAFSDGEILMVDNAVRTHFEPYERHFKEIGFNENTIKKYLQCTNIQTVTVPVPAKFLRASNVPTGLLNEMIAYLNSEERNHHNFSELLLFSCLSIFAACKGFITLLTNGVLSVSGKVRNIVNMKLAHPWKLKDICDCLYISESLLKKKLKQEQTTFSQILLDARMQHAKNLIRVEGSVNKIAEQCGYASTSYFIYAFRKHFGNSPKRVSKEYRCQRHTGMNTGNTMSALAI | not soluble |
| MGSDKIHHHHHHMSNIKVLIQASSRSWAGGRDICMGLVNGEIAIVRTIKRALTAFPEAQFCLVAPEFDRGGELKGIVDEIADKRLQAFYGFDESPLSRMVAASSELKDDDFIVRVDGIHFCFDTNLSQQMVSLAQKNNLDCIKLPADFPVHFSSEVFRVGALRELVKILDKPELAKFHVHPKTYFELNRYDYKFEHLGSLPQYSDDYLRECRQLAQAIYEIPRQEVNSHRIASGDRLGYHYQLALKYLKSSMKVLDIACADGYGVRMMSTSLATVHGADLDPESVAYAKAHSSQKNVAFFVEDITDMSFDDDSYDAVTSFETLEHVPEEACLKELQRIIKPGGMLVLSTPQNSYGHIPVNSCHIVEYSLDYLLNLVGQYFHIVKVIGIKAGIIHDDADPYGTNTVLVCIKPIR | not soluble |
| MGSDKIHHHHHHMSNKPFYYQDPFPLSKDDTEYRLLSSDFVSVAQFEGQDILKVEPAALTLLAQQAFHDASFMLRPAHQQQVADILHDPEASENDKYVALQFLRNSEISAKGILPTCQDTGTAIIVGKKGQNVWTGGNDAEALSQGVYNTFIEDNLRYSQNAALDMYQEVNTGTNLPAQIDLYSTEGEDYKFLFVTKGGGSANKTYLYQETKALLTPGKLKSFLIEKMRSLGTAACPPYHIAFAIGGTSAETTLKTVKLASTKYYDELPTEGNEHGQAFRDVALEQEILEAARDLGLGAQFGGKYFAHDVRIIRLPRHGASCPVGMGVSCSADRNIKGKINRKGVWLEQLEQNPGKYIPEHLRETGEGDAVKIDLNRPMTEILKTLSQYPVSTRLSLTGTIIVGRDIAHAKLKERLDNGEGLPQYIKDHPIYYAGPAKTPEGYPSGSLGPTTAGRMDSYVDLLQANGGSMVMLAKGNRSQQVTDACHKHGGFYLGSIGGPAAILAQNSIKSLTCVEYPELGMEAIWKIEVEDFPAFILVDDKGNDFFQVIQSAKCVKCG | not soluble |
| MGSDKIHHHHHHMSNQRYMMRGVSASKEDVHNAIKNIDKGIFPKAFCKIIPDILGGDPEYCNIMHADGAGTKSSLAYMYWKETGDLSVWKGIAQDALIMNIDDLLCVGAVDNILVSSTIGRNKLLIPGEVISAIINGTDELLAELREMGVGVYATGGETADVGDLVRTIIVDSTVTCRMKRSDVINNANIRPGDVIVGLASYGQATYEKEYNGGMGSNGLTSARHDVFGKYLAEKYPESYDAAVPEELVYSGGLKLTDTVEDSPIDAGKLVLSPTRTYAPVVKKLLDTLRPEIHGMVHCSGGAQTKVLHFVENVRVVKDNLFPVPPLFKTIQEQSGTDWAEMYKVFNMGHRLEVYLSPEHAEEVIAISESFGIPAQIVGRIEACDQTELIIKSEFGEFRY | not soluble |
| MGSDKIHHHHHHMSNRDKILSYRDLIKKKLIPLINADYVLLDVPNHPNIGDNLIWEGELRFLENIHYKCIYSANVHNWDENKIKDAKIILFHGGGNWGDLYRECQEHRLYIAEKFKDKRIIIFPQTVWYNNKSILPIDCKIFNNHADIHICLRDQMSMDILSNYVDAKKLYLLPDMAFFVDVEAMPMRKVRNDCILFMLRTDSEIDDITFKLESDFDVKDWPTFSNNKYILLLYSYFEYFKVVVSKRLQKCKFLNVFVSPIYGLNRKNNRERYIYKGINFFSNYEIIYTTRLHGLILGILMDKKVIIVDNKYNKCKNYYDTWLREFDNIELMS | not soluble |
